Data from US20090053740A1, “AGGLUTINATION-BASED METHOD FOR FAST DETECTION, ISOLATION AND QUANTIFICATION OF APOPTOTIC CELLS” (CEDARS-SINAI MEDICAL CENTER, priority 2005, published 2009).
Where two headings read alike, the source gives them in different places.

Tests used:
[1] = tested on: apoptotic cells; test: Effect of glycoprotein synthesis/traffic inhibitors on glycoprotein expression in apoptotic cells; format: cell-based
[2] = tested on: murine leukemia L1210 cells; test: Effect of cisplatin concentration on quantity of live cells
Protocol: Apoptosis of L1210 cells was induced by cisplatin (0.5 and 0.1 μg/ml, or 5.0 μg/ml, Ebewe, Austria) (56,57); apoptosis of L929 cells was induced by hyperthermia 43° C. […] Cell viability was controlled by trypan-blue (0.1% w/v solution) exclusion test, and cells were counted in hemocytometric chamber under light microscope.

[3] = tested on: L1210 cells; format: binding, murine
[4] = tested on: murine leukemia L1210 cells; format: cell-based
Protocol: Mixtures were resuspended once and 10 μl were transferred on slide glass, and examined under microscope.
Mannose-specific PMRL and PSL lectins caused agglutination of normal cells in concentrations of 625 and 1000 μg/ml, respectively and agglutination of apoptotic cells in concentrations of 78 and 125 μg/ml, respectively (FIG. 11). Thus, lectin concentration needed for agglutination of apoptotic cells was approximately equal to and/or equal to ⅛ (625 against 78 and 1000 against 125) of that needed to agglutinate the non-apoptotic cells. It is believed that there is an 8-fold increase in mannose-containing glycoconjugate expression in the apoptotic cells comparing to intact cells. Similar results were obtained for galactose-specific lectins.

[5] = tested on: murine fibroblasts of L929 line; test: Lectinocytochemical analysis with HRP-labeled lectins; format: binding
[6] = tested on: L929, L1210, MCF-7 (wt), MCF-7 (DOX/R), and Jurkat cell lines; test: Lectinocytochemical analysis, summary over the studied cell lines; format: binding
[7] = tested on: human leukemia Jurkat cells; test: Lectinocytochemical analysis with HRP-labeled lectins; format: binding
Protocol: (§1) Lectin cytochemical analysis was conducted as described previously by Herrington & Mc Gee (Herrington C S, McGee JO'D. Diagnostic molecular pathology. Oxford: IRL Press; 1992), with some modifications. Cell smears were fixed in a mixture of acetone, methanol, and formalin (19:19:2) for 90 s at room temperature and then air dried. Smears were washed twice with Tris saline buffer (TSB) for 2 min and incubated with HRP-labeled lectins (50 μg/ml) for 1 h at room temperature or overnight at 4° C. If necessary, the appropriate sugar inhibitor (0.1 M solution) was added to the incubation mixture. Smears were washed twice with TSB for 10 min and incubated with 0.5 mg/ml of 3,3′-diaminobenzidin (Sigma Chemical Co.) and 4 μl/ml of H2O2 in TSB for 5 min. In some experiments a NiCl2 solution was added to the incubation mixture (final concentration, 1 mg/ml) to improve cell contrast.
(§2) Alternatively, smears were washed in distilled water, air dried and photographed. Densitometric analysis was performed on an AMD-based IBM PC computer using ImageJ (Wayne Rasband, National Institutes of Health, USA) program support and the UTHSCSA ImageTool program (University of Texas Health Science Center in San Antonio, Tex.).

[8] = tested on: human adenocarcinoma cells of MCF-7 line; test: as above; format: binding
Protocol: as §1, §2

[9] = tested on: human lung carcinoma A549 cells; test: Fluorescent microscopy with fluorescent lectin conjugate; format: binding

With O=CC[C@@H](O)[C@H](O)[C@H](O)CO [2-deoxy-D-glucose] the “effect on the increase in expression of α-D-mannose- and β-D-galactose-containing glycoprotein(s) in apoptotic cells” value (shortened to “effect on the increase in expression”) [1] was “did not diminish”.

In the case of CC[C@@]1([C@@H]2O[C@@H]([C@H]3O[C@@](O)(CO)[C@H](C)C[C@@H]3C)C[C@@H]2C)CC[C@H]([C@]2(C)CC[C@]3(C[C@H](O)[C@@H](C)[C@@H]([C@@H](C)[C@@H](OC)[C@H](C)C(=O)O)O3)O2)O1 [monensine], the “effect on the increase in expression” value [1] is reported as “did not diminish”.

In the case of tunicamycin, the “effect on the increase in expression” value [1] is reported as “did not diminish”.

N.N.[Cl][Pt][Cl] [cisplatin, cis-diamminodichloroplatinum] was tested, and the “effect of increasing concentration on live cell number” value [2] was “decrease in live cell number”.

OC[C@H]1O[C@H](O[C@H]2[C@H](O)[C@@H](O)C(O)O[C@@H]2CO)[C@H](O)[C@@H](O)[C@H]1O (stereo partly drawn) [lactose, 4-O-(α-D-galactopyranosyl)-D-glucopyranose, reference compound] was tested, and the “inhibition of lectin binding by specific sugar inhibitor” value ([3]; α-MMan for PSL, lactose for RCA-120) was “substantial”.

With CO[C@H]1O[C@H](CO)[C@@H](O)[C@H](O)[C@@H]1O [α-MMan, α-Methyl-D-mannopyranoside, reference compound] the “inhibition of lectin binding by specific sugar inhibitor” value [3] was “almost absolute abolishment”.

B1: PSL: Pisum sativum lectin, α-D-mannose-specific (protein, UniProt P02867 31-217; P02867 218-275, looked up)
Lectin beta chain: TETTSFLITKFSPDQQNLIFQGDGYTTKEKLTLTKAVKNTVGRALYSSPIHIWDRETGNVANFVTSFTFVINAPNSYNVADGFTFFIAPVDTKPQTGGGYLGVFNSAEYDKTTQTVAVEFDTFYNAAWDPSNRDRHIGIDVNSIKSVNTKSWKLQNGEEANVVIAFNAATNVLTVSLTYPNSLEEEN
Lectin alpha chain: VTSYTLSDVVSLKDVVPEWVRIGFSATTGAEYAAHEVLSWSFHSELSGTSSSKQAADA
With B1 the “lectin concentration needed for agglutination of apoptotic cells as fraction of that needed for non-apoptotic cells” value ([4]; L1210 cells) was “⅛”, the “minimal lectin concentration needed to induce noticeable agglutination” value ([4]; apoptotic L1210 cells) was 125 µg/mL and the “minimal lectin concentration needed to induce noticeable agglutination” value ([4]; normal L1210 cells) was 1000 µg/mL. For the same molecule, the “lectin binding, apoptotic vs normal cells” value ([5]; L929) was “significantly stronger binding”, the “staining, apoptotic vs non-apoptotic cells” value ([5]; L929, etoposide 10 μM, 72 h) was “more intensive staining” and the “lectin binding, apoptotic vs non-apoptotic cells” value ([5]; L929, hyperthermia 43° C., 3h, detached by rubbing) was “increased binding”. The “lectin binding, apoptotic vs intact cells” value ([5]; L929, hyperthermia, trypsinization) was “significantly stronger”, the “binding by apoptotic cells compared with normal cells” value [3] was “much better bound” and the “lectin binding of cells pretreated 2 h with non-labeled lectin vs untreated, stained with corresponding HRP-labeled lectin” value [3] was “decrease”. For the same molecule, the “lectin binding with apoptotic cells compared to non-apoptotic cells” value [6] was “increased bidding”, the “lectin binding, apoptotic vs non-apoptotic cells” value [7] was “stronger” and the “lectin binding, apoptotic vs non-apoptotic cells” value [8] was “increase in binding”. For the same molecule, the “lectin binding, apoptotic vs normal cells” value [8] was “statistically insignificant”.

B2: FITC-PSL: FITC-labeled PSL lectin conjugate (conjugate, UniProt P02867 31-217; P02867 218-275, looked up)
Lectin beta chain: B1 Lectin beta chain
Lectin alpha chain: B1 Lectin alpha chain
modifications: FITC label
notes: FITC-labeled PSL lectin conjugate
In the case of B2, the “binding of labeled lectin compared to untreated cells or cells with onset of apoptosis” value ([9]; A549, 5 μg/ml cisplatin 24 hours, apoptosis in almost all cells (FIG. 18 lower row)) is reported as “significantly higher”, the “binding of labeled lectin compared to untreated cells” value ([9]; A549, 5 μg/ml cisplatin 24 hours, beginning of apoptotic cell death (FIG. 18 middle row)) is reported as “significantly stronger” and the “binding of labeled lectin” value ([9]; untreated A549 cells) is reported as “did not bind”.
